The labels stand for the following.
T1: gp130/CNTF-Rα/CNTF ternary complex (human, UniProt P26441 1-200; P40189 23-619)
T1 chain 1: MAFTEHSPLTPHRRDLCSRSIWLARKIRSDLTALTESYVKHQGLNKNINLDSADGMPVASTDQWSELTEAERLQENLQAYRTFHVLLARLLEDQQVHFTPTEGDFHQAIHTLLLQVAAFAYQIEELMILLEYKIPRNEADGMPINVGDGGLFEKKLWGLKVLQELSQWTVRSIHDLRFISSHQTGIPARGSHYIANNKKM
T1 chain 2: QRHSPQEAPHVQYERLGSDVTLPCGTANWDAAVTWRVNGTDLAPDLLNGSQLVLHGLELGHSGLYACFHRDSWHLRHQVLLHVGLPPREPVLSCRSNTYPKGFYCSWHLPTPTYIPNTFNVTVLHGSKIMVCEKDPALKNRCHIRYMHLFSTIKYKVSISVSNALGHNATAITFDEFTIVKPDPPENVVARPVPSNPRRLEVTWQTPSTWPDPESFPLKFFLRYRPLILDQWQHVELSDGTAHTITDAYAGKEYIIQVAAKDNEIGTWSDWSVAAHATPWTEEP
T1 chain 3: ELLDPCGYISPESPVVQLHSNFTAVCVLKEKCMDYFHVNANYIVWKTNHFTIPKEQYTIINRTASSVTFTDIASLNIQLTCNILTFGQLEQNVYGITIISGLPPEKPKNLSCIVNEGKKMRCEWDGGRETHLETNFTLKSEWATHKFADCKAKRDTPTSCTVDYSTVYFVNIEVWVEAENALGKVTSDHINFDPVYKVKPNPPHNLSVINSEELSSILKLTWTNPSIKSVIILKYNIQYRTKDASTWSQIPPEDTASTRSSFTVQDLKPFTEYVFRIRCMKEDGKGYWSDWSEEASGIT

B1: Ciliary Neurotrophic Factor (CNTF) (ligand, human, UniProt P26441 1-200, looked up)
chain: T1 chain 1
B2: Leukemia Inhibitory Factor Receptor LIF-R (D1-D5) (domain or fragment, human)
chain: DLKCVTNNLQVWNCSWKAPSGTGRGTDYEVCIENRSRSCYQLEKTSIKIPALSHGDYEITINSLHDFGSSTSKFTLNEQNVSLIPDTPEILNLSADFSTSTLYLKWNDRGSVFPHRSNVIWEIKVLRKESMELVKLVTHNTTLNGKDTLHHWSWASDMPLECAIHFVEIRCYIDNLHFSGLEEWSDWSPVKNISWIPDSQTKVFPQDKVILVGSDITFCCVSQEKVLSALIGHTNCPLIHLDGENVAIKIRNISVSASSGTNVVFTTEDNIFGTVIFAGYPPDTPQQLNCETHDLKEIICSWNPGRVTALVGPRATSYTLVESFSGKYVRLKRAEAPTNESYQLLFQMLPNQEIYNFTLNAHNPLGRSQSTILVNITEKVYPHTPTSFKVKDINSTAVKLSWHLPGNFAKINFLCEIEIKKSNSVQEQRNVTIKGVENSSYLVALDKLNPYTLYTFRIRCSTETFWKWSKWSNKKQHLTTEAS

Assay [1] concerns the target B2. Nature of the assay: ITC.
In assay [2] the target is T1, gp130/CNTF-Rα/CNTF ternary complex. Nature of the assay: ITC. On the technique in general: Isothermal titration calorimetry measures the heat released or taken up as one component is titrated into another.

With B1, the binding result in assay [1] was “binds”.

In general, stoichiometry N refers to the number of molecules, sites or subunits per partner or assembly. On to B2, for which, in assay [2], the “stoichiometry N” value came out at 1.

(Values after publication PMC2607196 (Molecular cell, 2008).)
